The values below come from FireProtDB (doi:10.1021/bi980431i).

Sequences and labels used below:
B1: Lysozyme C, P61626 (parent)
chain: MKALIVLGLVLLSVTVQGKVFERCELARTLKRLGMDGYRGISLANWMCLAKWESGYNTRATNYNAGDRSTDYGIFQINSRYWCNDGKTPGAVNACHLSCSALLQDNIADAVACAKRVVRDPQGIRAWVAWRNRCQNRDVRQYVQGCGV

The variants in the first data set derive from B1. To be noted: Homo sapiens; pH 2.58; Thermal; DSC; glycine 0.05 M; reversible: yes; structure 1LZ1; whole UniProt chain shown.
As to MKALIVLGLVLLSVTVQGKVFERCELARTLKRLGMDGYRGISLANWMCLAKWESGYNTRATNYNAGDRSTDYGIFQINSRFWCNDGKTPGAVNACHLSCSALLQDNIADAVACAKRVVRDPQGIRAWVAWRNRCQNRDVRQYVQGCGV [Y81F], the Tm (usually the temperature at which the thermal transition is half complete) worked out at 61.9 °C, the “heat capacity change of unfolding” value was 1.53 kcal/mol/K, the “unfolding enthalpy (calorimetric)” value was found to be 444 kJ/mol and the “unfolding enthalpy (van 't Hoff)” value was 469 kJ/mol.

Consider MKALIVLGLVLLSVTVQGKVFERCELARTLKRLGMDGFRGISLANWMCLAKWESGYNTRATNYNAGDRSTDYGIFQINSRYWCNDGKTPGAVNACHLSCSALLQDNIADAVACAKRVVRDPQGIRAWVAWRNRCQNRDVRQYVQGCGV [Y38F], for which the Tm came out at 61.1 °C, the “heat capacity change of unfolding” value was 1.67 kcal/mol/K, the “unfolding enthalpy (calorimetric)” value was 444 kJ/mol and the “unfolding enthalpy (van 't Hoff)” value amounted to 477 kJ/mol.

The data set is the same for the next values; noted with them: Homo sapiens; pH 2.7; 64.9 °C; Thermal; DSC; glycine 0.05 M; reversible: yes; structure 1LZ1; whole UniProt chain shown.
Consider MKALIVLGLVLLSVTVQGKVFERCELARTLKRLGMDGYRGISLANWMCLAKWESGYNTRATNYNAGDRSTDYGIFQINSRFWCNDGKTPGAVNACHLSCSALLQDNIADAVACAKRVVRDPQGIRAWVAWRNRCQNRDVRQYVQGCGV [Y81F], for which the “ddG of mutation (higher = less stable)” value came out at 1 kJ/mol and the “heat capacity change of unfolding” value is 1.53 kcal/mol/K.

As to MKALIVLGLVLLSVTVQGKVFERCELARTLKRLGMDGYRGISLANWMCLAKWESGYNTRATNYNAGDRSTDFGIFQINSRYWCNDGKTPGAVNACHLSCSALLQDNIADAVACAKRVVRDPQGIRAWVAWRNRCQNRDVRQYVQGCGV [Y72F], the “ddG of mutation (higher = less stable)” value was found to be 4.02 kJ/mol and the “heat capacity change of unfolding” value turned out to be 1.67 kcal/mol/K.

Regarding MKALIVLGLVLLSVTVQGKVFERCELARTLKRLGMDGFRGISLANWMCLAKWESGYNTRATNYNAGDRSTDYGIFQINSRYWCNDGKTPGAVNACHLSCSALLQDNIADAVACAKRVVRDPQGIRAWVAWRNRCQNRDVRQYVQGCGV [Y38F], the “ddG of mutation (higher = less stable)” value came out at 2.09 kJ/mol and the “heat capacity change of unfolding” value was found to be 1.35 kcal/mol/K.

Staying with this data set, now noted: Homo sapiens; pH 2.7; Thermal; DSC; glycine 0.05 M; reversible: yes; structure 1LZ1; whole UniProt chain shown.
On to MKALIVLGLVLLSVTVQGKVFERCELARTLKRLGMDGYRGISLANWMCLAKWESGYNTRATNYNAGDRSTDYGIFQINSRFWCNDGKTPGAVNACHLSCSALLQDNIADAVACAKRVVRDPQGIRAWVAWRNRCQNRDVRQYVQGCGV [Y81F], for which the Tm stood at 64.2 °C; the “change of melting temperature, mutant - wild type (higher = more stable)” value (“change of melting temperature, mutant” below) was -0.7 °C; the “heat capacity change of unfolding” value worked out at 1.53 kcal/mol/K; the “unfolding enthalpy (calorimetric)” value was determined as 464 kJ/mol. The “unfolding enthalpy (van 't Hoff)” value amounted to 488 kJ/mol.

For MKALIVLGLVLLSVTVQGKVFERCELARTLKRLGMDGYRGISLANWMCLAKWESGYNTRATNYNAGDRSTDFGIFQINSRYWCNDGKTPGAVNACHLSCSALLQDNIADAVACAKRVVRDPQGIRAWVAWRNRCQNRDVRQYVQGCGV [Y72F], the midpoint of thermal melting (Tm) was determined as 61.9 °C; the “change of melting temperature, mutant” value is -3 °C; the “heat capacity change of unfolding” value was found to be 1.67 kcal/mol/K; the “unfolding enthalpy (calorimetric)” value is 461 kJ/mol. Also, the “unfolding enthalpy (van 't Hoff)” value is 491 kJ/mol.

MKALIVLGLVLLSVTVQGKVFERCELARTLKRLGMDGFRGISLANWMCLAKWESGYNTRATNYNAGDRSTDYGIFQINSRYWCNDGKTPGAVNACHLSCSALLQDNIADAVACAKRVVRDPQGIRAWVAWRNRCQNRDVRQYVQGCGV [Y38F]: the Tm turned out to be 63.4 °C; the “change of melting temperature, mutant” value is -1.5 °C; the “heat capacity change of unfolding” value stood at 1.35 kcal/mol/K; the “unfolding enthalpy (calorimetric)” value was found to be 467 kJ/mol. For the same variant, the “unfolding enthalpy (van 't Hoff)” value was determined as 502 kJ/mol.

Still in this data set, the particulars now being: Homo sapiens; pH 3; Thermal; DSC; glycine 0.05 M; reversible: yes; structure 1LZ1; whole UniProt chain shown.
Take MKALIVLGLVLLSVTVQGKVFERCELARTLKRLGMDGYRGISLANWMCLAKWESGYNTRATNYNAGDRSTDYGIFQINSRFWCNDGKTPGAVNACHLSCSALLQDNIADAVACAKRVVRDPQGIRAWVAWRNRCQNRDVRQYVQGCGV [Y81F]: the Tm was 69.5 °C, the “heat capacity change of unfolding” value was 0.6 kcal/mol/K, the “unfolding enthalpy (calorimetric)” value was 490 kJ/mol and the “unfolding enthalpy (van 't Hoff)” value is 510 kJ/mol.

Still in this data set, the particulars now being: Homo sapiens; pH 3.17; Thermal; DSC; glycine 0.05 M; reversible: yes; structure 1LZ1; whole UniProt chain shown.
For MKALIVLGLVLLSVTVQGKVFERCELARTLKRLGMDGYRGISLANWMCLAKWESGYNTRATNYNAGDRSTDYGIFQINSRFWCNDGKTPGAVNACHLSCSALLQDNIADAVACAKRVVRDPQGIRAWVAWRNRCQNRDVRQYVQGCGV [Y81F], the Tm was 72.7 °C, the “heat capacity change of unfolding” value is 0.67 kcal/mol/K, the “unfolding enthalpy (calorimetric)” value is 515 kJ/mol and the “unfolding enthalpy (van 't Hoff)” value came out at 541 kJ/mol.

The data set is the same for the next values; noted with them: Homo sapiens; pH 2.69; Thermal; DSC; glycine 0.05 M; reversible: yes; structure 1LZ1; whole UniProt chain shown.
Consider MKALIVLGLVLLSVTVQGKVFERCELARTLKRLGMDGYRGISLANWMCLAKWESGYNTRATNYNAGDRSTDFGIFQINSRYWCNDGKTPGAVNACHLSCSALLQDNIADAVACAKRVVRDPQGIRAWVAWRNRCQNRDVRQYVQGCGV [Y72F], for which the melting temperature (Tm) turned out to be 61.7 °C, the “heat capacity change of unfolding” value was found to be 0.89 kcal/mol/K, the “unfolding enthalpy (calorimetric)” value came to 439 kJ/mol and the “unfolding enthalpy (van 't Hoff)” value was 469 kJ/mol.

The data set is the same for the next values; noted with them: Homo sapiens; pH 2.82; Thermal; DSC; glycine 0.05 M; reversible: yes; structure 1LZ1; whole UniProt chain shown.
In the case of MKALIVLGLVLLSVTVQGKVFERCELARTLKRLGMDGYRGISLANWMCLAKWESGYNTRATNYNAGDRSTDFGIFQINSRYWCNDGKTPGAVNACHLSCSALLQDNIADAVACAKRVVRDPQGIRAWVAWRNRCQNRDVRQYVQGCGV [Y72F], the Tm was found to be 64 °C, the “heat capacity change of unfolding” value was 1.91 kcal/mol/K, the “unfolding enthalpy (calorimetric)” value is 452 kJ/mol and the “unfolding enthalpy (van 't Hoff)” value worked out at 477 kJ/mol.

Staying with this data set, now noted: Homo sapiens; pH 2.99; Thermal; DSC; glycine 0.05 M; reversible: yes; structure 1LZ1; whole UniProt chain shown.
For MKALIVLGLVLLSVTVQGKVFERCELARTLKRLGMDGYRGISLANWMCLAKWESGYNTRATNYNAGDRSTDFGIFQINSRYWCNDGKTPGAVNACHLSCSALLQDNIADAVACAKRVVRDPQGIRAWVAWRNRCQNRDVRQYVQGCGV [Y72F], the Tm amounted to 67 °C, the “heat capacity change of unfolding” value was found to be 1.34 kcal/mol/K, the “unfolding enthalpy (calorimetric)” value came out at 477 kJ/mol and the “unfolding enthalpy (van 't Hoff)” value is 502 kJ/mol.

Staying with this data set, now noted: Homo sapiens; pH 3.13; Thermal; DSC; glycine 0.05 M; reversible: yes; structure 1LZ1; whole UniProt chain shown.
Regarding MKALIVLGLVLLSVTVQGKVFERCELARTLKRLGMDGYRGISLANWMCLAKWESGYNTRATNYNAGDRSTDFGIFQINSRYWCNDGKTPGAVNACHLSCSALLQDNIADAVACAKRVVRDPQGIRAWVAWRNRCQNRDVRQYVQGCGV [Y72F], the melting temperature (Tm) turned out to be 69.1 °C, the “heat capacity change of unfolding” value was 1.12 kcal/mol/K, the “unfolding enthalpy (calorimetric)” value is 490 kJ/mol and the “unfolding enthalpy (van 't Hoff)” value was 519 kJ/mol.

The data set is the same for the next values; noted with them: Homo sapiens; pH 2.89; Thermal; DSC; glycine 0.05 M; reversible: yes; structure 1LZ1; whole UniProt chain shown.
As to MKALIVLGLVLLSVTVQGKVFERCELARTLKRLGMDGFRGISLANWMCLAKWESGYNTRATNYNAGDRSTDYGIFQINSRYWCNDGKTPGAVNACHLSCSALLQDNIADAVACAKRVVRDPQGIRAWVAWRNRCQNRDVRQYVQGCGV [Y38F], the Tm is 66.8 °C, the “heat capacity change of unfolding” value was 1.7 kcal/mol/K, the “unfolding enthalpy (calorimetric)” value was 482 kJ/mol and the “unfolding enthalpy (van 't Hoff)” value is 516 kJ/mol.

The data set is the same for the next values; noted with them: Homo sapiens; pH 3.18; Thermal; DSC; glycine 0.05 M; reversible: yes; structure 1LZ1; whole UniProt chain shown.
Regarding MKALIVLGLVLLSVTVQGKVFERCELARTLKRLGMDGFRGISLANWMCLAKWESGYNTRATNYNAGDRSTDYGIFQINSRYWCNDGKTPGAVNACHLSCSALLQDNIADAVACAKRVVRDPQGIRAWVAWRNRCQNRDVRQYVQGCGV [Y38F], the midpoint of thermal melting (Tm) is 72 °C, the “heat capacity change of unfolding” value stood at 0.6 kcal/mol/K, the “unfolding enthalpy (calorimetric)” value stood at 510 kJ/mol and the “unfolding enthalpy (van 't Hoff)” value stood at 541 kJ/mol.
